Data as given in US11428689B2, “Methods and uses for remotely triggered protease activity measurements” (Massachusetts Institute of Technology, priority 2016, dated 2022).
Where no end group is shown, it is not given here. [ ]: non-standard residue; d: D form. FAM = fluorescein

Key:
LS174T cells [1] = test: Secreted protease activity assay, conditioned media; assay type: cell-based, human; settings: conditioned media from LS174T cells
Procedure: (§1) LS174T and CCD-18Co (ATCC CRL-1459) cells were cultured in Eagle's Minimal Essential Medium (ATCC) supplemented with 10% FBS (Gibco) and 1% penicillin-streptomycin (CellGro). Cells were passaged when confluence reached 80%. To isolate secreted proteases, after cells were plated, cells were washed and replaced in serum-free media. Conditioned media was collected 24 h later and exposed to C1-NPs to measure fluorescence dequenching.

MMP13 = molecular target: T1, MMP13 (Homo sapiens, UniProt P45452); test: In vitro recombinant protease assay (fluorescence dequenching of NP-bound substrate); assay type: biochemical; settings: for cleavage of substrate by MMP13: unmodified substrate on particle
T1 construct: purchased Enzo Life Sciences
Procedure: (§2) C1-NP complexes sensitive to MMP cleavage were mixed with 1% (wt/vol) BSA (Sigma) and incubated with recombinant proteases (MMPs and ADAMs: Enzo Life Sciences; Clotting proteases: Haematologic Technologies) in a final volume of 100 μL in enzyme-specific buffers (MMP buffer: 50 mM Tris, 150 mM NaCl, 5 mM CaCl2, 1 μM ZnCl2, pH 7.5; Clotting proteases: PBS) in a 384-well plate for time-lapse fluorimetry to measure dequenching from homoquenched peptides at 37° C. (SpectroMax Gemini EM Microplate Reader). For the metalloproteinase, enzymes were diluted 1:10 in enzyme specific buffer, and for clotting proteases, enzymes were diluted 1:100. Cleavage heatmap was generated using GENE-E (Broad Institute). Michaelis-Menten constants were determined by assessing initial cleavage velocities at different substrate concentrations. The MMP inhibitor Marimatstat (Tocris) was added to the mixture at 100 μM final concentration. To identify the cleavage position by MMP9, C1-NPs were incubated with MMP9 overnight, and the N-terminal cleavage fragment was isolated and analyzed by MALDI. The sequence corresponding to the dominant peak was identified, and the final amino acid was in that sequence represents the P1 position (toward the N-terminal end from scissile bond). For protease resistance assays, various DMNPE: peptide ratios were reacted overnight and purified prior to being added to proteases.
(§3) Light activation of peptides for biochemical studies was performed using a CL-1000 UV Cross-linker (UVP, 8 mW/cm^2). Power density was measured by an OAI 306 UV power meter at 365 nm. Typical exposure time for these studies was 10-30 min. For activation in cell and animal studies, Lumen Dynamics UV system with 365 nm fiber light guide was used (OmniCure 1000, 200 mW/cm^2). For in vivo activation at the tumor site, mice were anesthetized, and the light was guided through an optical cable and placed approximately 3 cm from the flank tumor. Each flank tumor was exposed for 30 s.

MMP9 = MMP9 (Homo sapiens, UniProt P14780); test: as above; assay type: biochemical; parameters: purchased Enzo Life Sciences
Procedure: as §2, §3

MMP7 = molecular target: T2, MMP7 (Homo sapiens, UniProt P09237); test: as above; assay type: biochemical; settings: unmodified substrate on particle
T2 construct: purchased Enzo Life Sciences
T2 sequence (P09237 95-267): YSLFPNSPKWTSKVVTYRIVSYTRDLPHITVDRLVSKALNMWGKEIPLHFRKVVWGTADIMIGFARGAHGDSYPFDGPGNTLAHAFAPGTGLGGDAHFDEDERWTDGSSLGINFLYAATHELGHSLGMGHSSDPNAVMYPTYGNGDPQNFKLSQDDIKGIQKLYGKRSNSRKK
Procedure: as §2

MMP14 = molecular target: T3, MMP14 (Homo sapiens, UniProt P50281); test: as above; assay type: biochemical; settings: unmodified substrate on particle
T3 construct: purchased Enzo Life Sciences
Procedure: as §2

MMP1 = molecular target: T4, MMP1 (Homo sapiens, UniProt P03956); test: as above; assay type: biochemical; settings: unmodified substrate on particle
T4 construct: purchased Enzo Life Sciences
T4 sequence (P03956 100-469): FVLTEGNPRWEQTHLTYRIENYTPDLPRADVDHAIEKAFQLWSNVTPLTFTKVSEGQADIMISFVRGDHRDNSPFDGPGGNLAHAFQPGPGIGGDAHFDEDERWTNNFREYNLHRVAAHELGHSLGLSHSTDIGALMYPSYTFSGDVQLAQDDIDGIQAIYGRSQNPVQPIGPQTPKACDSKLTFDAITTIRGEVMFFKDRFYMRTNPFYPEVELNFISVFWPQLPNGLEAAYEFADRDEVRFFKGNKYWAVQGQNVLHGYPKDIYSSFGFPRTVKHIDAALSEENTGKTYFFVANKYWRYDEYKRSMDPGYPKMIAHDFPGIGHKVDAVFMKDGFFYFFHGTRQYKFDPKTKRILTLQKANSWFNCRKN
Procedure: as §2

[2] = NP stability in physiological solution (lack of fluorescent dequenching); assay type: in vitro ADME; settings: physiological solution (human control serum, FIG. 7C), 37° C., 24 h
Procedure: Next, whether STREAMs could provide both spatial and temporal control of MMP activity measurements was tested. First, whether the veiled NPs would block protease cleavage until activation by light was evaluated. Due to homoquenching of the fluorescent substrates once assembled on the NPs, protease activity can be monitored by measuring increases in sample fluorescence that occurs from peptide proteolysis (FIG. 7B). NPs were stable in physiological solution at 37° C. over 24 h, as confirmed by a lack of fluorescent dequenching (FIG. 7C).

LS174T cells [3] = test: 3D collagen cancer tissue model, peptide fluorescence in supernatant; assay type: cell-based, human
Procedure: Next, the activation of the nanosensors in a 3D ECM environment was probed. Forty LS174T cells were embedded in collagen I together with veiled or unmodified nanosensors (FIG. 4A). The constructs were monitored for protease activity by collecting the supernatant and measuring liberated peptide fragments under different conditions: L-amino acid peptide substrates were compared to D-amino acid counterparts to measure nonspecific background, and the role of DMPNE veiling was measured.
In order to correlate regions of light-activation with protease activity measurements, light-activated rhodamine dye was included to visualize regions exposed to light (FIG. 12A). To explore the ability to monitor protease activity with spatial and temporal control, only the left half of the gels was illuminated.
LS174T cells were encapsulated in 2.5 mg/mL collagen hydrogels (rat tail collagen type I, Corning). Imaging was done on Nikon Eclipse Ti Inverted Microscopes and Zeiss Stereoscope Discovery v20. When protease activity was measured, surrounding media was serum-free.

CCD-18Co cell line = test: Secreted protease activity assay, conditioned media; assay type: cell-based; settings: conditioned media from CCD-18Co cells
Procedure: as §1

Sequence of MMP9 (P14780 94-707, species assumed): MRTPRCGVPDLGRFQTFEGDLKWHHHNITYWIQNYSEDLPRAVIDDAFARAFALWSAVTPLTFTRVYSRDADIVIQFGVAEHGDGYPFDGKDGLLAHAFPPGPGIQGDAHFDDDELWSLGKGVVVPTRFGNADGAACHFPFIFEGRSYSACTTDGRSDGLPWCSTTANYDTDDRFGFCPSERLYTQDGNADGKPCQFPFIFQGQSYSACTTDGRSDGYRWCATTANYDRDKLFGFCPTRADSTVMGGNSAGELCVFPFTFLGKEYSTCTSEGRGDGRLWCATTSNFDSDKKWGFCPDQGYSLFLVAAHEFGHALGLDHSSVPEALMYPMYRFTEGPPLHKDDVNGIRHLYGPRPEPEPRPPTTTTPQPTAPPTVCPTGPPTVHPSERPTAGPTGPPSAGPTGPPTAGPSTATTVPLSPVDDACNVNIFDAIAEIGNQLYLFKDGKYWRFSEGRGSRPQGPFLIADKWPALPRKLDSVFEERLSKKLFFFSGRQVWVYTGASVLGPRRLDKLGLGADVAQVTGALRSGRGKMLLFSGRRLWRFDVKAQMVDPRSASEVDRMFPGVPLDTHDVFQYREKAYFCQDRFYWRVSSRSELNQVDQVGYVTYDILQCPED

- cleavage of substrate by MMP13 (MMP13): most efficient
- cleavage of substrate by MMP13 (MMP13; listed as C1-NP): significantly cleaved
- cleavage of substrate by MMP9 (MMP9; unmodified substrate on particle): significantly cleaved
- cleavage of substrate by MMP7 (MMP7): significantly cleaved
- cleavage of substrate by MMP14 (MMP14): able to cleave the substrate
- cleavage of substrate by MMP1 (MMP1): significantly cleaved
Substance: C1-NPs: Iron oxide NPs functionalized with fluorescein-conjugated peptide substrate C1 at surface valency >20; in vitro protease sensor ({FAM}-[dS][dK]PLGLEEAGC(iron oxide nanoparticle); not fully specified; printed as FAM-sk-PLGLEEA-GC; also: C-terminal Cys coupled to iron oxide nanoparticle)
- cleavage by cell-secreted proteases (LS174T cells [1]): peptide cleavage and a dose-dependent increase in fluorescence
- catalytic efficiency (MMP13; MMP13, Michaelis-Menten fit): > 10^4 M^−1 s^−1
- catalytic efficiency (MMP9; MMP9, Michaelis-Menten fit): > 10^3 M^−1 s^−1
- stability (lack of fluorescent dequenching) [2]: stable
- liberated peptide fluorescence in supernatant (LS174T cells [3]; first day, no light): significantly more fluorescent peptides than those with D-amino acid NPs
- peptide fluorescence in supernatant after light exposure (LS174T cells [3]; left half of gels illuminated, 24 h, 30 s at 200 mW/cm^2): did not exhibit significant changes in peptide fluorescence
- cleavage by cell-secreted proteases (CCD-18Co cell line): significantly lower compared to LS174T cells
